The values below are quoted from earlier work in publication PMC11053944.

Series [1] addresses Sba1 (Saccharomyces cerevisiae) (UniProt P28707). The series is described as follows: SPR.
For series [2] the target is unchanged. Put plainly: ITC.

Sequence of Sba1 (Saccharomyces cerevisiae) (P28707 2-216): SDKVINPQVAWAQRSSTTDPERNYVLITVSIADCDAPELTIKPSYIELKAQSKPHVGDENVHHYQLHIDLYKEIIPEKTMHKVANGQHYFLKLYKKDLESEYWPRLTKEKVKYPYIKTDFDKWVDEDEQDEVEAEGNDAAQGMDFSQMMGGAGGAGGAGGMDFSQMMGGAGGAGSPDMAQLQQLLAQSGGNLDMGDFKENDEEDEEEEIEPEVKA

A word on the Kd: it is the free concentration of one partner at which half of the binding sites on the other are occupied at equilibrium, for simple one-to-one binding. As for HSP90 (from UniProt P02829), the Kd was 540 nM in series [1] and 1750 nM in series [2].
